Laboratory results taken from the supplement of paper PMC9732359.
± gives the uncertainty stated by the source.

Assay: protein stability index of a GFP-peptide fusion (yeast GPS) (PSI 1-4); higher = more stable; sorted into four equal gates, so the index is relative within each strain
Summary of the method: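 The protein stability index combines read frequencies across sorting gates, each weighted by its gate number and then summed. To obtain those frequencies, a pooled yeast library of GFP fusions to tiled 17-residue yeast protein peptides, on a plasmid also expressing Cherry, was grown to mid-log phase in leucine-free medium. The cells were sorted into four equal gates by GFP/Cherry ratio before plasmid amplification by PCR and Illumina sequencing.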

## VSLVAEATSNTNSEDKL [MED4]
doa10∆
  protein stability index: 2.84 ± 0.12
pdr5∆
  protein stability index: 3.03 ± 0.078
san1∆
  protein stability index: 2.84 ± 0.082
ubr1∆
  protein stability index: 2.65 ± 0.1

## VSLVVNFQISKKMDDYI [PRP28]
doa10∆
  protein stability index: 2.39 ± 0.066
pdr5∆
  protein stability index: 2.05 ± 0.07
san1∆
  protein stability index: 2.38 ± 0.1
ubr1∆
  protein stability index: 2.03 ± 0.05

## VSMITDHNALPQRCTFA [POP1]
doa10∆
  protein stability index: 2.97 ± 0.18
pdr5∆
  protein stability index: 3.01 ± 0.11
san1∆
  protein stability index: 2.3 ± 0.18
ubr1∆
  protein stability index: 2.73 ± 0.13

## VSNLMGRNIGHPIIQDK [RPB3]
doa10∆
  protein stability index: 3.42 ± 0.079
pdr5∆
  protein stability index: 3.43 ± 0.072
san1∆
  protein stability index: 3.17 ± 0.053
ubr1∆
  protein stability index: 3.22 ± 0.084

## VSNPGDNPPPADNGEEY [MED2]
doa10∆
  protein stability index: 3.14 ± 0.071
pdr5∆
  protein stability index: 2.86 ± 0.1
san1∆
  protein stability index: 3.13 ± 0.074
ubr1∆
  protein stability index: 3.29 ± 0.11

## VSSESSDEAIIPVNKRR [SIR3]
doa10∆
  protein stability index: 3.31 ± 0.15
pdr5∆
  protein stability index: 2.98 ± 0.12
san1∆
  protein stability index: 3.02 ± 0.1
ubr1∆
  protein stability index: 3.22 ± 0.082

## VSTKTNEYRLAFYQVTP [RPL22A]
doa10∆
  protein stability index: 1.86 ± 0.038
pdr5∆
  protein stability index: 2.19 ± 0.04
san1∆
  protein stability index: 2.6 ± 0.056
ubr1∆
  protein stability index: 2.48 ± 0.048

## VSTRAIDLLWKGKTPKN [PRP28]
pdr5∆
  protein stability index: 1.48 ± 0.12
san1∆
  protein stability index: 1.18 ± 0.12
ubr1∆
  protein stability index: 1.16 ± 0.14

## VSVRKHLERNRKDKDAK [RPS13]
doa10∆
  protein stability index: 3.38 ± 0.16
pdr5∆
  protein stability index: 3.31 ± 0.095
ubr1∆
  protein stability index: 3.28 ± 0.099

## VTEDGTVVTVVSTAKFS [RPL22A]
doa10∆
  protein stability index: 2.52 ± 0.13
pdr5∆
  protein stability index: 2.81 ± 0.14
san1∆
  protein stability index: 2.2 ± 0.12
ubr1∆
  protein stability index: 2.59 ± 0.061

## VTFSVMPPKKSWRNITN [SMC4]
doa10∆
  protein stability index: 2 ± 0.11
pdr5∆
  protein stability index: 2.45 ± 0.15
san1∆
  protein stability index: 2.23 ± 0.19
ubr1∆
  protein stability index: 2.82 ± 0.14

## VTKILPHLIIQNHNSKS [IRR1]
doa10∆
  protein stability index: 1.41 ± 0.11
pdr5∆
  protein stability index: 1.19 ± 0.072
san1∆
  protein stability index: 1.16 ± 0.13
ubr1∆
  protein stability index: 1.15 ± 0.073

## VTLDFGNIFADLLPNSF [SMC2]
doa10∆
  protein stability index: 2.8 ± 0.1
pdr5∆
  protein stability index: 2.86 ± 0.067
san1∆
  protein stability index: 3.07 ± 0.07
ubr1∆
  protein stability index: 2.91 ± 0.064

## VTLLANVRALYMRLWEI [RMP1]
doa10∆
  protein stability index: 1.57 ± 0.21

## VTLVNGKRRMNPGPSVQ [RPS30A]
doa10∆
  protein stability index: 2.69 ± 0.049
pdr5∆
  protein stability index: 2.94 ± 0.031
san1∆
  protein stability index: 2.81 ± 0.047
ubr1∆
  protein stability index: 2.87 ± 0.033

## VTPIIDGIVVKNAVVRS [ARP7]
doa10∆
  protein stability index: 1.51 ± 0.074
pdr5∆
  protein stability index: 1.92 ± 0.082
san1∆
  protein stability index: 1.61 ± 0.13
ubr1∆
  protein stability index: 1.74 ± 0.16

## VTPTKTEVIIRATRTQD [RPS3]
doa10∆
  protein stability index: 1.86 ± 0.049
pdr5∆
  protein stability index: 1.91 ± 0.044
san1∆
  protein stability index: 2.57 ± 0.069
ubr1∆
  protein stability index: 1.91 ± 0.033

## VTQNVLGLEYIIRLLPI [SRB8]
doa10∆
  protein stability index: 1.55 ± 0.12
pdr5∆
  protein stability index: 1.68 ± 0.14
san1∆
  protein stability index: 1.39 ± 0.25
ubr1∆
  protein stability index: 1.63 ± 0.21

## VTYSDVGGCKDQIEKLR [RPT1]
doa10∆
  protein stability index: 3.51 ± 0.16
pdr5∆
  protein stability index: 3.67 ± 0.2
san1∆
  protein stability index: 2.92 ± 0.25
ubr1∆
  protein stability index: 3.39 ± 0.12

## VVAAAEDDDNEQHEEKA [QCR6]
doa10∆
  protein stability index: 2.87 ± 0.12
pdr5∆
  protein stability index: 2.98 ± 0.15
ubr1∆
  protein stability index: 3.07 ± 0.16

## VVDFTSLPEELKKRYDL [YMR129W/POM152]
doa10∆
  protein stability index: 2.14 ± 0.21
pdr5∆
  protein stability index: 2.33 ± 0.15
san1∆
  protein stability index: 2.96 ± 0.088
ubr1∆
  protein stability index: 2.62 ± 0.12

## VVDTEETATLIMNELYR [SMC3]
doa10∆
  protein stability index: 3.02 ± 0.086
pdr5∆
  protein stability index: 3.17 ± 0.11
san1∆
  protein stability index: 2.79 ± 0.1
ubr1∆
  protein stability index: 3.03 ± 0.096

## VVETITSLLNKVLKSGS [RRP42]
doa10∆
  protein stability index: 2.67 ± 0.11
pdr5∆
  protein stability index: 2.37 ± 0.067
san1∆
  protein stability index: 2.54 ± 0.085
ubr1∆
  protein stability index: 2.45 ± 0.051

## VVFAVEKLITSKLLVPQ [PRE10]
doa10∆
  protein stability index: 2.03 ± 0.14
pdr5∆
  protein stability index: 2.81 ± 0.18
san1∆
  protein stability index: 2.33 ± 0.13
ubr1∆
  protein stability index: 2.66 ± 0.05

## VVFDSNEAPPKTSLADW [YMR153W/NUP53]
doa10∆
  protein stability index: 3.19 ± 0.06
pdr5∆
  protein stability index: 3.28 ± 0.051
san1∆
  protein stability index: 3.06 ± 0.073
ubr1∆
  protein stability index: 3.33 ± 0.096

## VVIAADTRSTQGPIVAD [PUP1]
doa10∆
  protein stability index: 2.65 ± 0.1
pdr5∆
  protein stability index: 3.29 ± 0.24
san1∆
  protein stability index: 2.68 ± 0.19
ubr1∆
  protein stability index: 3 ± 0.072

## VVKGLPDISRAVINIRD [RPO31]
doa10∆
  protein stability index: 2.83 ± 0.083
pdr5∆
  protein stability index: 2.23 ± 0.097
san1∆
  protein stability index: 2.6 ± 0.23
ubr1∆
  protein stability index: 2.47 ± 0.083

## VVNQPTGKIVDVVGTLS [FAS1]
doa10∆
  protein stability index: 3.1 ± 0.12
pdr5∆
  protein stability index: 3.49 ± 0.12
san1∆
  protein stability index: 3.49 ± 0.092
ubr1∆
  protein stability index: 3.11 ± 0.061

## VVSTTAVIESVVNQPTG [FAS1]
doa10∆
  protein stability index: 2.06 ± 0.078
pdr5∆
  protein stability index: 1.82 ± 0.087
san1∆
  protein stability index: 1.99 ± 0.11
ubr1∆
  protein stability index: 2.1 ± 0.079

## VVTRSKEAFEEEIKQSA [SMC1]
doa10∆
  protein stability index: 3.05 ± 0.14
pdr5∆
  protein stability index: 3.07 ± 0.13
san1∆
  protein stability index: 3.11 ± 0.25
ubr1∆
  protein stability index: 3.1 ± 0.089

## VVYHPSNNELVRTNTLT [RPS8A]
doa10∆
  protein stability index: 2.647 ± 0.019
pdr5∆
  protein stability index: 2.396 ± 0.018
san1∆
  protein stability index: 2.455 ± 0.019
ubr1∆
  protein stability index: 2.647 ± 0.014

## VYKIYNHVMPLKPVDKL [SIN4]
doa10∆
  protein stability index: 1.84 ± 0.064
pdr5∆
  protein stability index: 1.97 ± 0.072
san1∆
  protein stability index: 1.63 ± 0.11
ubr1∆
  protein stability index: 1.62 ± 0.051

## WAVKEGPLAEEPIYGVQ [SNU114]
doa10∆
  protein stability index: 2.8 ± 0.067
pdr5∆
  protein stability index: 2.53 ± 0.079
san1∆
  protein stability index: 2.76 ± 0.061
ubr1∆
  protein stability index: 1.8 ± 0.047

## WELYTDFNEIVQYLSGA [POP3]
doa10∆
  protein stability index: 2.55 ± 0.13
pdr5∆
  protein stability index: 2.31 ± 0.12
san1∆
  protein stability index: 2.4 ± 0.075
ubr1∆
  protein stability index: 2.43 ± 0.075

## WIKFLLHTLYLRPASAI [SSN8]
doa10∆
  protein stability index: 1.74 ± 0.045
pdr5∆
  protein stability index: 1.29 ± 0.035
san1∆
  protein stability index: 1.25 ± 0.068
ubr1∆
  protein stability index: 1.15 ± 0.038

## WKATYSNEFKCMSVITA [YGL100W/SEH1]
doa10∆
  protein stability index: 1.87 ± 0.056
pdr5∆
  protein stability index: 1.64 ± 0.051
san1∆
  protein stability index: 1.51 ± 0.073
ubr1∆
  protein stability index: 2.07 ± 0.032

## WKTAEEVSALVRSLPKE [PRP8]
doa10∆
  protein stability index: 1.21 ± 0.068
pdr5∆
  protein stability index: 1.36 ± 0.079
san1∆
  protein stability index: 1.28 ± 0.12
ubr1∆
  protein stability index: 1.08 ± 0.051

## WLEQFLSCVKNDTISED [NUT1]
doa10∆
  protein stability index: 1.73 ± 0.046
pdr5∆
  protein stability index: 1.51 ± 0.04
san1∆
  protein stability index: 1.36 ± 0.059
ubr1∆
  protein stability index: 1.54 ± 0.035

## WLKEYEDETLRRIKEAE [YIL149C/MLP2]
doa10∆
  protein stability index: 2.83 ± 0.11
pdr5∆
  protein stability index: 3.19 ± 0.12
san1∆
  protein stability index: 3.17 ± 0.069
ubr1∆
  protein stability index: 3.44 ± 0.11

## WLWPLCRGELKADIGKP [CDC53]
doa10∆
  protein stability index: 2.11 ± 0.078
pdr5∆
  protein stability index: 2.06 ± 0.062
san1∆
  protein stability index: 1.98 ± 0.089
ubr1∆
  protein stability index: 2.43 ± 0.09

## WPKTRGVAMNPVDHPHG [RPL2A]
doa10∆
  protein stability index: 2.37 ± 0.078
pdr5∆
  protein stability index: 2.25 ± 0.057
san1∆
  protein stability index: 2.74 ± 0.058
ubr1∆
  protein stability index: 2.55 ± 0.066

## WQQVTALAQQKLLTPQD [GAL11]
doa10∆
  protein stability index: 2.29 ± 0.058
pdr5∆
  protein stability index: 2.38 ± 0.068
san1∆
  protein stability index: 2.18 ± 0.085
ubr1∆
  protein stability index: 2.45 ± 0.06

## WQSGLKMYDYEEKEESN [RPN11]
doa10∆
  protein stability index: 2.98 ± 0.13
pdr5∆
  protein stability index: 3.26 ± 0.13
san1∆
  protein stability index: 2.93 ± 0.1
ubr1∆
  protein stability index: 3 ± 0.16

## WRFHTPQKYVLHPQLHE [SIN4]
doa10∆
  protein stability index: 2.17 ± 0.071
pdr5∆
  protein stability index: 2.11 ± 0.069
san1∆
  protein stability index: 1.78 ± 0.13
ubr1∆
  protein stability index: 1.97 ± 0.057

## WSFYNGNVLINDTLPDE [SNU114]
pdr5∆
  protein stability index: 2.23 ± 0.16
ubr1∆
  protein stability index: 1.7 ± 0.16

## WSHNGPFETFDHASIRR [CYT1]
doa10∆
  protein stability index: 2.79 ± 0.06
pdr5∆
  protein stability index: 3 ± 0.062
san1∆
  protein stability index: 2.79 ± 0.051
ubr1∆
  protein stability index: 2.96 ± 0.043

## WVNNPKKRFTPHTVIRR [YDL088C/ASM4]
doa10∆
  protein stability index: 3.42 ± 0.23

## WYLILSIISSKTSCVVE [RGR1]
doa10∆
  protein stability index: 1.46 ± 0.13
pdr5∆
  protein stability index: 1.23 ± 0.12
san1∆
  protein stability index: 1.58 ± 0.26
ubr1∆
  protein stability index: 1.18 ± 0.1

## YAIKKKDELERVAKSNR [RPS5]
doa10∆
  protein stability index: 3.41 ± 0.061
pdr5∆
  protein stability index: 3.35 ± 0.073
san1∆
  protein stability index: 3.44 ± 0.043
ubr1∆
  protein stability index: 3.23 ± 0.068

## YAKFKRNTMMIQCQIDK [RGR1]
doa10∆
  protein stability index: 2.23 ± 0.055
pdr5∆
  protein stability index: 2.24 ± 0.051
san1∆
  protein stability index: 2.1 ± 0.065
ubr1∆
  protein stability index: 2.34 ± 0.033

## YASYFPYLLETYANVLI [RPN7]
doa10∆
  protein stability index: 1.57 ± 0.088
pdr5∆
  protein stability index: 1.43 ± 0.062
san1∆
  protein stability index: 1.18 ± 0.096
ubr1∆
  protein stability index: 1.08 ± 0.043

## YATKRQEAIQQNRRLAF [PRP8]
doa10∆
  protein stability index: 2.43 ± 0.11
pdr5∆
  protein stability index: 2.43 ± 0.12
san1∆
  protein stability index: 2.62 ± 0.25
ubr1∆
  protein stability index: 2.61 ± 0.067

## YATQVKTDNTVDKFDFY [RPT3]
doa10∆
  protein stability index: 2.39 ± 0.05
pdr5∆
  protein stability index: 2.63 ± 0.055
san1∆
  protein stability index: 2.49 ± 0.052
ubr1∆
  protein stability index: 2.62 ± 0.042
